Data on two molecules can be found in patent US12258396 (MEDICOVESTOR, dated 2025).

Experiment [1] concerns the target T1, fusion protein containing the extracellular domain of cynomolgus FRalpha and a polyhistidine tag (cynomolgus, UniProt A0A2K5U044 25-233).
T1 construct: extracellular domain; Coated on ELISA plates; also called cynomolgus FRalpha extracellular domain; not shown: polyhistidine tag
Kind of experiment: ELISA, plate coated with cynomolgus FRalpha ECD-His, anti-human-IgG-Fc-HRP detection. In general terms: ELISA stands for enzyme-linked immunosorbent assay.

Experiment [2] has as its target T2, fusion protein containing the extracellular domain of human FRalpha and a polyhistidine tag (human, UniProt P15328 25-233).
T2 construct: extracellular domain; Coated on ELISA plates; also called human FRalpha extracellular domain; not shown: polyhistidine tag
Kind of experiment: ELISA, plate coated with human FRalpha ECD-His, anti-human-IgG-Fc-HRP detection. Here is the method:
The affinity of each IgG1 for FRalpha was confirmed by ELISA. Briefly, a fusion protein containing the extracellular domain of human FRalpha and a polyhistidine tag was used to coat ELISA plates, which were washed three times with phosphate-buffered saline (PBS) containing 0.1 percent polysorbate 20 (PBST), then blocked with PBS containing 5 percent powdered milk (PBSM), and then washed three more times with PBST. Wells were then incubated with antibodies at varying concentrations for 60 minutes at room temperature in 1 percent PBSM. Wells were then washed three times with PBST, after which the secondary, horse-radish-peroxidase-conjugated antibody anti-human-IgG-Fc-HRP (ab97225, Abcam, United Kingdom) was added at a 1:8000 dilution in 1 percent PBSM for 50 minutes at room temperature. The wells were then washed six times with PBST, after which 3,3',5,5"-tetramethylbenzidine (TMB) was added. The reaction was stopped with 2 molar sulfuric acid, and the TMB diamine product was quantified at 450 nanometers in a plate reader. Results are depicted in FIG. 2.

In experiment [3] the target is T3, human FRalpha expressed on cells (transfected HEK293 cells; SKOV3 human ovarian cancer cells) (human, UniProt P15328 25-234).
T3 construct: whole, on cells; also called human folate receptor alpha
Kind of experiment: flow cytometry on HEK293 cells transfected to express FRalpha, PE anti-human IgG Fcgamma detection. Here is the method:
(§1) The affinity of each antibody was then assessed by flow cytometry. Briefly, HEK293 cells transfected to express FRalpha were washed with fluorescence-activated cell sorting (FACS) buffer, to which the IgGs were added at varying concentrations and incubated at 4 degrees Celsius for 60 minutes. The cells were then centrifuged and washed twice in FACS buffer. A phycoerythrin-labelled anti-human IgG, Fcgamma antibody (109-115-098; Jackson ImmunoResearch, Pennsylvania, United States) was then added to the cells at a 1:200 dilution and incubated at 4 degrees Celsius for 30 minutes. The cells were then washed, resuspended in FACS buffer, and counted by flow cytometry. Results are depicted in FIG. 4.
For orientation: In flow cytometry, cells or beads pass a laser one at a time.

In experiment [4] the target is T3, human FRalpha expressed on cells …. Kind of experiment: flow cytometry on SKOV3 human ovarian cancer cells that express FRalpha. Here is the method:
as §1
The flow cytometry experiment of the preceding paragraph was repeated with a human ovarian cancer cell line that expresses FRalpha, SKOV3. Results are depicted in FIGS. 5A and 5B. […] The antibody according to SEQ ID NO: 3-12 was then designated the lead antibody for further development.

T3 sequence (P15328 25-234): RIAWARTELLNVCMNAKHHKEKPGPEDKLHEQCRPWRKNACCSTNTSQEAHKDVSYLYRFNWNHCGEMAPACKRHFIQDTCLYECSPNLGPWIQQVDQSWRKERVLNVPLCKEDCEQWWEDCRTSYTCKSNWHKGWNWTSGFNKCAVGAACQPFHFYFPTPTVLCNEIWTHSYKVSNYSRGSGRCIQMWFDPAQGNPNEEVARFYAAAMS
T1 sequence (A0A2K5U044 entry or part of it): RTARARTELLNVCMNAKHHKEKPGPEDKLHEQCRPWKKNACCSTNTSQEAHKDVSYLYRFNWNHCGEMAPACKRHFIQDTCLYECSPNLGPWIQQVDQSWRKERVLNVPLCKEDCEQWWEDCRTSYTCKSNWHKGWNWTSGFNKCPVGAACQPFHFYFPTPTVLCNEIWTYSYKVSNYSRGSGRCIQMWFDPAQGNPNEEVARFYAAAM
T2 sequence (P15328 25-233 limits assumed): as the sequence (A0A2K5U044 entry or part of it) above, with T2I, R4W, K37R, P146A, Y171H counted along it

B1: Mirvetuximab (antibody, V domains shown)
VH: QVQLVQSGAEVVKPGASVKISCKASGYTFTGYFMNWVKQSPGQSLEWIGRIHPYDGDTFYNQKFQGKATLTVDKSSNTAHMELLSLTSEDFAVYYCTRYDGSRAMDYWGQGTTVTVSS
VL: DIVLTQSPLSLAVSLGQPAIISCKASQSVSFAGTSLMHWYHQKPGQQPRLLIYRASNLEAGVPDRFSGSGSKTDFTLTISPVEAEDAATYYCQQSREYPYTFGGGTKLEIK
In the case of B1, the EC50 (as a rule, the midpoint of the concentration-response curve) is approximately 0.16 nM in experiment [1], approximately 0.12 nM in experiment [2] and approximately 4 nM in experiment [3].

B2: lead fully-human anti-FRalpha IgG1 antibody (antibody according to SEQ ID NO: 3-12) (antibody, V domains shown)
VH: EVQLLESGGGLVKPGGSLRLSCAASGFTFSSYTMNWVRQAPGKGLEWVSSISSGGGYIYYADSVKDRFTISRDNAKNSLYLQMNSLRAEDTAVYYCAKGDTIMIISAWGQGTTVTVSS
VL: DIQLTQSPSTLSASVGDRVTITCRASQSISSWLAWHQQKPGKAPKLLIYAASSLQNGVPSRFSGSGFGTDFTLTISSLQPEDFATYYCQQASSFPLTFGGGTKVEIKR
notes: Fully human IgG1/kappa; also called lead antibody; lead anti-FRalpha antibody
As to B2, the EC50 is approximately 0.06 nM in experiment [1], approximately 0.05 nM in experiment [2], less than 1 nM in experiment [4] and approximately 5 nM in experiment [3].
